T1: Abp1, P15891
T1 sequence (P15891 535-592, looked up): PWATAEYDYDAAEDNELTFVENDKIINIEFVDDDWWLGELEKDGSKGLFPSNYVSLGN

T2: Bbc1, P47068
T2 sequence (P47068 1-78, looked up): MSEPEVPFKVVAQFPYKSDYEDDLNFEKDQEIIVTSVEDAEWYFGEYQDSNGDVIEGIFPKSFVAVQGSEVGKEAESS

T3: Boi1, P38041
T3 sequence (P38041 1-86, looked up): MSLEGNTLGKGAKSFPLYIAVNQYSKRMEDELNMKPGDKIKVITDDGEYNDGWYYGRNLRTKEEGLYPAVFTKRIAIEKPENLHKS

T4: Boi2, P39969
T4 sequence (P39969 32-116, looked up): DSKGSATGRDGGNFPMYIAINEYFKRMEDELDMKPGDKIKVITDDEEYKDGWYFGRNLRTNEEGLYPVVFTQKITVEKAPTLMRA

T5: Bud14, P27637
T5 sequence (P27637 247-328, looked up): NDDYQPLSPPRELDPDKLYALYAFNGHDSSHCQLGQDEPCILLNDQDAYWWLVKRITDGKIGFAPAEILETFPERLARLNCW

T6: Bzz1-1, P38822
T6 sequence (P38822 478-572, looked up): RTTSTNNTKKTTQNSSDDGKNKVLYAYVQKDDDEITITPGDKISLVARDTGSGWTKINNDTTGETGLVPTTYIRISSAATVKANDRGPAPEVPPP

T7: Bzz1-2, P38822
T7 sequence (P38822 568-633, looked up): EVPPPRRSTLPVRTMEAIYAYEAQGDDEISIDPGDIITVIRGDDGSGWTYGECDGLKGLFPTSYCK

T8: Cdc25, P04821
T8 sequence (P04821 50-136, looked up): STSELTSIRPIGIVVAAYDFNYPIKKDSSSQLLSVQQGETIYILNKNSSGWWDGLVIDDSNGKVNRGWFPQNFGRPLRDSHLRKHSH

T9: Cyk3, Q07533
T9 sequence (Q07533 1-83, looked up): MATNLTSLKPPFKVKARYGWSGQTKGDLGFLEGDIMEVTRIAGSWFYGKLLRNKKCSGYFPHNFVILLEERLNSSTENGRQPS

T10: Fus1, P11710
T10 sequence (P11710 432-512, looked up): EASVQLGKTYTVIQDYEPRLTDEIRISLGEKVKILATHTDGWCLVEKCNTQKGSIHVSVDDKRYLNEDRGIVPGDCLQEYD

T11: Hof1, Q05080
T11 sequence (Q05080 590-669, looked up): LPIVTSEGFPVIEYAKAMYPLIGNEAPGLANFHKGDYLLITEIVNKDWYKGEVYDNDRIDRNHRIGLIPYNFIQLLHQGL

T12: Hse1, P38753
T12 sequence (P38753 208-285, looked up): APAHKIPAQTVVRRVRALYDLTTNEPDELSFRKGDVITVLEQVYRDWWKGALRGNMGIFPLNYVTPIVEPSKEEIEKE

T13: Lsb1, P53281
T13 sequence (P53281 45-122, looked up): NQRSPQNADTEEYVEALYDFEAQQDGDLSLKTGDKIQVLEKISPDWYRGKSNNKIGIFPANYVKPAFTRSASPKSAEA

T14: Lsb3, P43603
T14 sequence (P43603 385-451, looked up): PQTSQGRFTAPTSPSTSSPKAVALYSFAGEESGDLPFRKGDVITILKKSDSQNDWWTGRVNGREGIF

T15: Lsb4, P32793
T15 sequence (P32793 402-468, looked up): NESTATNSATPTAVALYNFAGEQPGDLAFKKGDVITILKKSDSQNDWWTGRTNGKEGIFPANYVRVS

T16: Myo5, Q04439
T16 sequence (Q04439 1072-1160, looked up): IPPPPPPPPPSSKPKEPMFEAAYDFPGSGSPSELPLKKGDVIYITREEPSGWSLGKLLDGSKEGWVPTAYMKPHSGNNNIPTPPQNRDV

T17: Nbp2, Q12163
T17 sequence (Q12163 103-180, looked up): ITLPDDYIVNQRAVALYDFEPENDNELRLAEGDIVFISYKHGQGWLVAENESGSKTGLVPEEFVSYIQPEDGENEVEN

T18: Pex13, P80667
T18 sequence (P80667 295-386, looked up): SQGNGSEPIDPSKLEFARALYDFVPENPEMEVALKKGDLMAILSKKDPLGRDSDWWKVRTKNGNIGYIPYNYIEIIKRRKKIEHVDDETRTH

T19: Pin3, Q06449
T19 sequence (Q06449 53-122, looked up): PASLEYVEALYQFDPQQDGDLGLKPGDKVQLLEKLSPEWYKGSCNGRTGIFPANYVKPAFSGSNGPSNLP

T20: Sla1-2, P32790
T20 sequence (P32790 60-140, looked up): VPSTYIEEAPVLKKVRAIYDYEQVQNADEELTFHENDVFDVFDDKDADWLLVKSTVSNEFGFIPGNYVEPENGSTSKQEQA

T21: Sla1-3, P32790
T21 sequence (P32790 344-424, looked up): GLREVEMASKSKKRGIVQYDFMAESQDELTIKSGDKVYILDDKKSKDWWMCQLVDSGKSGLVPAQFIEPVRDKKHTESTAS


Target: T1, Abp1, P15891
Experiment: SPOT array
Conditions: median of control spots 935

| SPOT intensity | Binder |
| --- | --- |
| 37 | RHLKLVPSTPMDIPW |
| 212 | RTRRRPPPPPIPSTQ |
| 2 | TPEIPPPLPPKIMVH |

Target: T2, Bbc1, P47068
Experiment: SPOT array
Conditions: median of control spots 796

| SPOT intensity | Binder |
| --- | --- |
| 1 | RHLKLVPSTPMDIPW |
| 434 | RTRRRPPPPPIPSTQ |
| 0 | TPEIPPPLPPKIMVH |

Target: Bem1-1, P29366
Sequence (P29366 55-141): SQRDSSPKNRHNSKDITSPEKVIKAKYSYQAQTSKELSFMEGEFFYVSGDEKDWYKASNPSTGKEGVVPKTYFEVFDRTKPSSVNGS
Experiment: SPOT array
Conditions: median of control spots 4282

| SPOT intensity | Binder |
| --- | --- |
| 189 | RHLKLVPSTPMDIPW |
| 0 | RTRRRPPPPPIPSTQ |
| 0 | TPEIPPPLPPKIMVH |

Target: Bem1-2, P29366
Sequence (P29366 139-227): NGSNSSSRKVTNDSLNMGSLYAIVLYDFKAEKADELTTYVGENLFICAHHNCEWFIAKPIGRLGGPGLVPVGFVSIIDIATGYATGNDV
Experiment: SPOT array
Conditions: median of control spots 4347

| SPOT intensity | Binder |
| --- | --- |
| 90 | RHLKLVPSTPMDIPW |
| 79 | RTRRRPPPPPIPSTQ |
| 0 | TPEIPPPLPPKIMVH |

Target: T3, Boi1, P38041
Experiment: SPOT array
Conditions: median of control spots 1162

| SPOT intensity | Binder |
| --- | --- |
| 0 | RHLKLVPSTPMDIPW |
| 1 | RTRRRPPPPPIPSTQ |
| 0 | TPEIPPPLPPKIMVH |

Target: T4, Boi2, P39969
Experiment: SPOT array
Conditions: median of control spots 1161

| SPOT intensity | Binder |
| --- | --- |
| 0 | RHLKLVPSTPMDIPW |
| 0 | RTRRRPPPPPIPSTQ |
| 0 | TPEIPPPLPPKIMVH |

Target: T5, Bud14, P27637
Experiment: SPOT array
Conditions: median of control spots 956

| SPOT intensity | Binder |
| --- | --- |
| 8 | RHLKLVPSTPMDIPW |
| 16 | RTRRRPPPPPIPSTQ |
| 0 | TPEIPPPLPPKIMVH |

Target: T6, Bzz1-1, P38822
Experiment: SPOT array
Conditions: median of control spots 4446

| SPOT intensity | Binder |
| --- | --- |
| 6 | RHLKLVPSTPMDIPW |
| 1470 | RTRRRPPPPPIPSTQ |
| 0 | TPEIPPPLPPKIMVH |

Target: T7, Bzz1-2, P38822
Experiment: SPOT array
Conditions: median of control spots 4538

| SPOT intensity | Binder |
| --- | --- |
| 411 | RHLKLVPSTPMDIPW |
| 2960 | RTRRRPPPPPIPSTQ |
| 0 | TPEIPPPLPPKIMVH |

Target: T8, Cdc25, P04821
Experiment: SPOT array
Conditions: median of control spots 969

| SPOT intensity | Binder |
| --- | --- |
| 14 | RHLKLVPSTPMDIPW |
| 3 | RTRRRPPPPPIPSTQ |
| 2 | TPEIPPPLPPKIMVH |

Target: T9, Cyk3, Q07533
Experiment: SPOT array
Conditions: median of control spots 1451

| SPOT intensity | Binder |
| --- | --- |
| 0 | RHLKLVPSTPMDIPW |
| 3 | RTRRRPPPPPIPSTQ |
| 0 | TPEIPPPLPPKIMVH |

Target: T10, Fus1, P11710
Experiment: SPOT array
Conditions: median of control spots 1200

| SPOT intensity | Binder |
| --- | --- |
| 1430 | RHLKLVPSTPMDIPW |
| 13 | RTRRRPPPPPIPSTQ |
| 0 | TPEIPPPLPPKIMVH |

Target: GST
Experiment: SPOT array
Conditions: median of control spots 978

| SPOT intensity | Binder |
| --- | --- |
| 0 | RHLKLVPSTPMDIPW |
| 1 | RTRRRPPPPPIPSTQ |
| 0 | TPEIPPPLPPKIMVH |

Target: T11, Hof1, Q05080
Experiment: SPOT array
Conditions: median of control spots 4086

| SPOT intensity | Binder |
| --- | --- |
| 59 | RHLKLVPSTPMDIPW |
| 8 | RTRRRPPPPPIPSTQ |
| 2240 | TPEIPPPLPPKIMVH |

Target: T12, Hse1, P38753
Experiment: SPOT array
Conditions: median of control spots 1727

| SPOT intensity | Binder |
| --- | --- |
| 134 | RHLKLVPSTPMDIPW |
| 63 | RTRRRPPPPPIPSTQ |
| 1540 | TPEIPPPLPPKIMVH |

Target: T13, Lsb1, P53281
Experiment: SPOT array
Conditions: median of control spots 388

| SPOT intensity | Binder |
| --- | --- |
| 14 | RHLKLVPSTPMDIPW |
| 800 | RTRRRPPPPPIPSTQ |
| 0 | TPEIPPPLPPKIMVH |

Target: T14, Lsb3, P43603
Experiment: SPOT array
Conditions: median of control spots 406

| SPOT intensity | Binder |
| --- | --- |
| 0 | RHLKLVPSTPMDIPW |
| 56 | RTRRRPPPPPIPSTQ |
| 96 | TPEIPPPLPPKIMVH |

Target: T15, Lsb4, P32793
Experiment: SPOT array
Conditions: median of control spots 397

| SPOT intensity | Binder |
| --- | --- |
| 6 | RHLKLVPSTPMDIPW |
| 69 | RTRRRPPPPPIPSTQ |
| 42 | TPEIPPPLPPKIMVH |

Target: Myo3, P36006
Experiment: SPOT array
Conditions: median of control spots 468

| SPOT intensity | Binder |
| --- | --- |
| 81 | RHLKLVPSTPMDIPW |
| 487 | RTRRRPPPPPIPSTQ |
| 304 | TPEIPPPLPPKIMVH |

Target: T16, Myo5, Q04439
Experiment: SPOT array
Conditions: median of control spots 471

| SPOT intensity | Binder |
| --- | --- |
| 10 | RHLKLVPSTPMDIPW |
| 243 | RTRRRPPPPPIPSTQ |
| 87 | TPEIPPPLPPKIMVH |

Target: T17, Nbp2, Q12163
Experiment: SPOT array
Conditions: median of control spots 357

| SPOT intensity | Binder |
| --- | --- |
| 3 | RHLKLVPSTPMDIPW |
| 107 | RTRRRPPPPPIPSTQ |
| 0 | TPEIPPPLPPKIMVH |

Target: T18, Pex13, P80667
Experiment: SPOT array
Conditions: median of control spots 1341

| SPOT intensity | Binder |
| --- | --- |
| 99 | RHLKLVPSTPMDIPW |
| 21 | RTRRRPPPPPIPSTQ |
| 321 | TPEIPPPLPPKIMVH |

Target: T19, Pin3, Q06449
Experiment: SPOT array
Conditions: median of control spots 2171

| SPOT intensity | Binder |
| --- | --- |
| 329 | RHLKLVPSTPMDIPW |
| 10 | RTRRRPPPPPIPSTQ |
| 20 | TPEIPPPLPPKIMVH |

Target: Rvs167, P39743
Sequence (P39743 419-482): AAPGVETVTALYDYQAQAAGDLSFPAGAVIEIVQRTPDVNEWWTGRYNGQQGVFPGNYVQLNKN
Experiment: SPOT array
Conditions: median of control spots 2707

| SPOT intensity | Binder |
| --- | --- |
| 43 | RHLKLVPSTPMDIPW |
| 99 | RTRRRPPPPPIPSTQ |
| 0 | TPEIPPPLPPKIMVH |

Target: Sho1, P40073
Sequence (P40073 287-367): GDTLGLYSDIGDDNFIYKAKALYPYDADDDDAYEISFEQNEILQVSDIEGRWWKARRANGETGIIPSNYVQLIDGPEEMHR
Experiment: SPOT array
Conditions: median of control spots 1148

| SPOT intensity | Binder |
| --- | --- |
| 72 | RHLKLVPSTPMDIPW |
| 83 | RTRRRPPPPPIPSTQ |
| 52 | TPEIPPPLPPKIMVH |

Target: T20, Sla1-2, P32790
Experiment: SPOT array
Conditions: median of control spots 712

| SPOT intensity | Binder |
| --- | --- |
| 3 | RHLKLVPSTPMDIPW |
| 3 | RTRRRPPPPPIPSTQ |
| 0 | TPEIPPPLPPKIMVH |

Target: T21, Sla1-3, P32790
Experiment: SPOT array
Conditions: median of control spots 5475

| SPOT intensity | Binder |
| --- | --- |
| 290 | RHLKLVPSTPMDIPW |
| 1980 | RTRRRPPPPPIPSTQ |
| 0 | TPEIPPPLPPKIMVH |

— publication PMC2756588
